Laboratory results taken from patent US20240101716A1 (LA NOVA MEDICINES DEVELOPMENT, published 2024).

Assays:
PD-L1 expressed on cells = target: T1, PD-L1 expressed on cells (UniProt Q9NZQ7 19-290, limits assumed); test: FACS binding test on PD-L1 cell line, Geom.Mean; unit from the axis log(nm)
T1 construct: whole, on cells

[1] = target: PD-L1 (blocking assay of Example 11) (UniProt Q9NZQ7 19-239, limits assumed); test: cell-based or functional assay
[2] = target: T2, recombinant human SIRPα variant 2 protein (human, UniProt P78324 31-370, limits assumed); test: SPR Biacore 8K, antibody captured, antigen analyte
T2 construct: polymorphic variant 2; also called SIRPα v2; hSIRPαV2
T2 sequence (P78324 other isoform, or with tags, fused parts or gaps mutant limits assumed): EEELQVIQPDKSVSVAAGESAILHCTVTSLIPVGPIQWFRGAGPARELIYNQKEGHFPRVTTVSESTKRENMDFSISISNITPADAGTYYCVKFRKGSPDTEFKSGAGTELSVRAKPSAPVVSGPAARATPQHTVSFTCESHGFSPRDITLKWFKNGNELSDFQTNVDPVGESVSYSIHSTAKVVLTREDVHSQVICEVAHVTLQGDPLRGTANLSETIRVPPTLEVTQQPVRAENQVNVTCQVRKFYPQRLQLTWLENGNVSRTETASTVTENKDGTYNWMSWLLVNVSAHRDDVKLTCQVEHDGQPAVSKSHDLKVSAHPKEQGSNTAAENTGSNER
Protocol: The binding kinetics assay of antibody to antigen was performed using Biacore 8K system through human antibody capture approach. The […] Fc lgG were immobilized on CM5 sensor chip according to the manufactory's instruction. The test antibody was injected and captured by the immobilized anti-human Fc lgG. […] The assay system was regenerated by injection of 10 mM Glycine-HCl pH 1.5 for 30 seconds. The running buffer was HBS-EP+ (10 mM HEPES, pH 7.4, 150 mM NaCl, 3 mM EDTA and 0.05% P20). The assay temperature was 25° C., and the association and dissociation time were 180 and 600 seconds, respectively.

PD-L1 (blocking assay of Example 11), sequence (Q9NZQ7 19-239 limits assumed): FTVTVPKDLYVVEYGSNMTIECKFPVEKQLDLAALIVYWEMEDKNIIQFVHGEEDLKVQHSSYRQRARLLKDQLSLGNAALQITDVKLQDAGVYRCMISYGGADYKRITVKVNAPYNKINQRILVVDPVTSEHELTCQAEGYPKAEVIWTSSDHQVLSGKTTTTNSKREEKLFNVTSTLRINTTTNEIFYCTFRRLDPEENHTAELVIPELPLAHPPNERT
T1 sequence (Q9NZQ7 19-290 limits assumed): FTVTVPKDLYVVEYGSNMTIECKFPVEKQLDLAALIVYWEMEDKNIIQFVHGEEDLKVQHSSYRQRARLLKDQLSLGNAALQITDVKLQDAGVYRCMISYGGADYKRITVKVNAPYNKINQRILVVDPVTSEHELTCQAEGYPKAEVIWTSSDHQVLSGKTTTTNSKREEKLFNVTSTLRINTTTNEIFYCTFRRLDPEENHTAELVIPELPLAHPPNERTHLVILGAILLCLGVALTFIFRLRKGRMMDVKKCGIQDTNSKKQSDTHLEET

EC50 (PD-L1 expressed on cells) [nM]	EC50, luminescence (RLU) in the PD-1/PD-L1 Blockade Assay [1] [nM]	Kd [2] [nM]	koff [2] [s⁻¹]	kon [2] [M⁻¹ s⁻¹]	Binder
0.205	0.873	–	–	–	PD-L1/SIRPa-LN2 (bispecific antibody, human IgG4 S228P, kappa, Format IV: sdAb at the N-terminus of the light chain (300A6A6); also called PD-L1/SIRPα-LN2) heavy: not shown light: EVQLVESGGGLVQPGGSLRLSCAASGRTFVTYGMGWFRQAPGKGREFVSAISWSGSMTSYGDSVKGRFTISRDNAKNTLYLQMNSLRPEDTAVYYCAAALGAVVYTTREPYTYWGQGTLVTVSSGGGGSGGGGSGGGGSDIQMTQSPSSLSASVGDRVTITCQASQDIGNKLIWYQQKPGKAPKLLIYYVTNLPGGVPSRFSGSGSGTDFTLTISSLQPEDFATYYCLQYKQNPLTFGQGTKLEIKRTVAAPSVFIFPPSDEQLKSGTASVVCLLNNFYPREAKVQWKVDNALQSGNSQESVTEQDSKDSTYSLSSTLTLSKADYEKHKVYACEVTHQGLSSPVTKSFNRGEC
–	–	3.03	0.001	331000	HSP210-03-hz51 (antibody, V domains shown, humanized 300A6A6, VH v5 + VL v1; also called SIRPa IgG#2 03-hz51) VH: QVQLVQSGAEVKKPGSSVKVSCKASGYTFTSNYIHWVRQAPGQGLEWMGWIYPGDADTNYNQKFNGRVTLTADKSTSTAYMELSSLRSEDTAVYYCAINYGGIWFAYWGQGTLVTVSS VL: DIQMTQSPSSLSASVGDRVTITCQASQDIGNKLIWYQQKPGKAPKLLIYYVTNLPGGVPSRFSGSGSGTDFTLTISSLQPEDFATYYCLQYKQNPLTFGQGTKLEIK
–	–	7.4	0.00247	333000	HSP210-02-hz52 (antibody, V domains shown, humanized 248G3F6, VH v5 + VL v2; also called SIRPa IgG#1 02-hz52) VH: QVQLVQSGAEVKKPGASVKVSCKASGFNFEDTYMHWVRQAPGQGLEWMGRIDPADADTKYNPKFQDRVTITVDTSTNTAYMELSSLRSEDTAVYYCVRGNYVNWGQGTTVTVSS VL: EIVLTQSPGTLSLSPGERATLSCRASSSVSSSYLYWYQQKPGQAPRLLIYSTSNLASGIPDRFSGSGSGTDYTLTISRLEPEDAAVYFCHQWYSYPRTFGGGTKVEIK
0.269	0.908	–	–	–	PD-L1/SIRPa-HN2 (bispecific antibody, human IgG4 S228P, kappa, Format II: sdAb at the N-terminus of the heavy chain (300A6A6); also called PD-L1/SIRPα-HN2) heavy: not shown light: DIQMTQSPSSLSASVGDRVTITCQASQDIGNKLIWYQQKPGKAPKLLIYYVTNLPGGVPSRFSGSGSGTDFTLTISSLQPEDFATYYCLQYKQNPLTFGQGTKLEIKRTVAAPSVFIFPPSDEQLKSGTASVVCLLNNFYPREAKVQWKVDNALQSGNSQESVTEQDSKDSTYSLSSTLTLSKADYEKHKVYACEVTHQGLSSPVTKSFNRGEC
0.321	0.9	–	–	–	PD-L1/SIRPa-HC1 (bispecific antibody, human IgG4 S228P, kappa, Format I: AS11948SVH12 sdAb at the C-terminus of IgG4 Fc of 02-hz52 (248G3F6); also called PD-L1/SIRPα-HC1) heavy: not shown light: EIVLTQSPGTLSLSPGERATLSCRASSSVSSSYLYWYQQKPGQAPRLLIYSTSNLASGIPDRFSGSGSGTDYTLTISRLEPEDAAVYFCHQWYSYPRTFGGGTKVEIKRTVAAPSVFIFPPSDEQLKSGTASVVCLLNNFYPREAKVQWKVDNALQSGNSQESVTEQDSKDSTYSLSSTLTLSKADYEKHKVYACEVTHQGLSSPVTKSFNRGEC
0.311	–	–	–	–	PD-L1/SIRPa-HN1 (bispecific antibody, human IgG4 S228P, kappa, Format II: sdAb at the N-terminus of the heavy chain (248G3F6); also called PD-L1/SIRPα-HN1) heavy: not shown light: EIVLTQSPGTLSLSPGERATLSCRASSSVSSSYLYWYQQKPGQAPRLLIYSTSNLASGIPDRFSGSGSGTDYTLTISRLEPEDAAVYFCHQWYSYPRTFGGGTKVEIKRTVAAPSVFIFPPSDEQLKSGTASVVCLLNNFYPREAKVQWKVDNALQSGNSQESVTEQDSKDSTYSLSSTLTLSKADYEKHKVYACEVTHQGLSSPVTKSFNRGEC
0.912	1.55	–	–	–	PD-L1/SIRPa-LC2 (bispecific antibody, human IgG4 S228P, kappa, Format III: sdAb at the C-terminus of the light chain (300A6A6); also called PD-L1/SIRPα-LC2) heavy: not shown light: DIQMTQSPSSLSASVGDRVTITCQASQDIGNKLIWYQQKPGKAPKLLIYYVTNLPGGVPSRFSGSGSGTDFTLTISSLQPEDFATYYCLQYKQNPLTFGQGTKLEIKRTVAAPSVFIFPPSDEQLKSGTASVVCLLNNFYPREAKVQWKVDNALQSGNSQESVTEQDSKDSTYSLSSTLTLSKADYEKHKVYACEVTHQGLSSPVTKSFNRGECGGGGSGGGGSGGGGSEVQLVESGGGLVQPGGSLRLSCAASGRTFVTYGMGWFRQAPGKGREFVSAISWSGSMTSYGDSVKGRFTISRDNAKNTLYLQMNSLRPEDTAVYYCAAALGAVVYTTREPYTYWGQGTLVTVSS
